From patent CN115819568A

Biological target: EV A71病毒样颗粒(VLP) (Enterovirus A71)
Assay: sandwich ELISA: rabbit anti-EV A71 VLP serum as capture, VLP titrated, antibody 1.2 ng/ul as detector, positive at OD450>0.15

B1: 肠道病毒A71单克隆抗体 1G10 (antibody, V domains shown)
VH: EVKLVESGGGLVKPGGSLKLSCAASGFTFSSYVMSWVRQTPEKRLEWVASISNGGSTFYPDSVKGRLTISRDNARNILYLQMSSLRSEDTAMYYCARAYGNDWYFDVWGAGTTVTVSS
VL: DIQMTQTTSSLSASLGDRVTISCRASQDISNYLNWYQQKPDGTVKLLIYYTSRLNSGVPSRFSGSGSGTDYSLTISNLEEEDIATYFCQQGNTAWTFGGGTKLEIKR
- 最低检出限度: 3.12 ng/mL
